Data: patent US20180099046A1 (JIANGSU HENGRUI MEDICINE, published 2018)

What was measured:
[1] = molecular target: T1, human sclerostin protein (R&D SYSTEM, 1406-ST/CF) (human, UniProt Q9BQB4 24-213, biotinylated in the LRP-6 blocking assay; not labelled in Biacore); experiment: SPR (Biacore)
T1 construct: Bought protein; also called human SOST; SOST (R&D, Catalog #1406-ST-025)
T1 sequence (looked up): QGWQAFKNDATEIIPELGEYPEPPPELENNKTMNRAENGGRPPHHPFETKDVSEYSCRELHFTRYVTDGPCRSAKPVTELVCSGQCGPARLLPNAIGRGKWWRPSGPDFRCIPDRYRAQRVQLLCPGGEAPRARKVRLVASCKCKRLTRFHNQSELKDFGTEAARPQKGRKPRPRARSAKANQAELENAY

[2] = molecular target: T2, cynomolgus monkey sclerostin with a Flag tag (cyno-SOST-Flag) (cynomolgus monkey); experiment: SPR (Biacore)
T2 construct: also called monkey SOST

[3] = molecular target: T1, human sclerostin protein (R&D SYSTEM, …); experiment: cell-based or functional assay
[4] = molecular target: T3, human sclerostin with a Flag tag (h-SOST-Flag) (human, UniProt Q9BQB4 24-213, biotinylated (biotin labeling kit) in the ELISA); experiment: binding ELISA, biotinylated h-SOST-Flag on streptavidin plate
T3 construct: also called SOST-FLAG protein; not shown: C-terminal Flag tag
T3 sequence (looked up): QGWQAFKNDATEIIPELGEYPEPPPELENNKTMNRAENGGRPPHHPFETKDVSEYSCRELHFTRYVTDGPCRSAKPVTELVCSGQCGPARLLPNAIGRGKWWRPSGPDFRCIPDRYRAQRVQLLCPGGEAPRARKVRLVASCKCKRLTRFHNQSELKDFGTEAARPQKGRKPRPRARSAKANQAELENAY
Method: (§1) ELISA experiments were used to detect the binding properties of sclerostin antibodies. Sclerostin with a Flag tag (h-SOST-FLAG, encoded by SEQID NO: 2) was biotinylated with a biotin labeling kit (Dojido Chem, LK03), and immobilized onto a 96-well EIA/RIA plate via binding to streptavidin coated on it. After the antibody was added, the strength of the signal was used to determine the binding activity between the antibody and human sclerostin.
Streptavidin (Sigma, S4762-5MG) was diluted to a concentration of 5 μg/ml with PBS buffer at pH 7.4 (Sigma, P4417-100TAB), and added to a 96-well EIA/RIA plate (Corning,CLS3590-100EA) at a volume of 50 μl/well. Then, the plate was incubated in an incubator at 37° C. for 2 hours. The liquid was discarded, the plates were blocked with 200 μl/well of blocking solution containing 5% skim milk (Guangming skim milk) in PBS, and incubated in an incubator at 37° C. for 2.5 hours or overnight (16-18 hours) at 4° C. After blocking, the blocking solution was discarded and the plate was washed 5 times with PBST buffer (pH 7.4 PBS containing 0.05% tween-20). Biotinylated SOST-FLAG protein (R&D SYSTEM, 1505-LR-025) was diluted with sample dilution buffer (pH 7.4 PBS containing 1% BSA) to 0.5 μg/ml and was added to each well at 50 μl/well, then the plate was incubated in the incubator at 37° C. for 2 hours. After incubation, the reaction solution in the plate was discarded, and the plate was washed with PBST 6 times, and then 50 μl/well of gradient dilution antibody with sample dilution buffer was added, and the plate was incubated in a incubator at 37° C. for 2 hours. The plate was washed 6 times with PBST after incubation, added with 100 μl/well of HRP-labeled goat anti-mouse (Jackson Immuno Research, Cat No. 115-035-003) or HRP-labeled goat anti-human secondary antibody (Jackson Immuno Research, Cat No. 109-035-003) diluted in sample dilution, and incubated at 37° C. for 1 hour. After washing the plates with PBST 6 times, 50 μl/well of TMB substrate (KPL, Cat No. 52-00-03) was added to each well, and incubated at room temperature for 10-15 min, and the reaction was stopped by adding 50 μl 1M H₂SO₄ to each well. The OD value at a wavelength of 450 nm was read on a NOVOStar microplate reader, and then EC₅₀ values of the binding between the sclerostin antibody of the present invention and human sclerostin were calculated.

[5] = molecular target: T2, cynomolgus monkey sclerostin with a …; experiment: competition ELISA: antibody blocks binding of monkey sclerostin to captured LRP-6-Fc
Method: (§2) In the method, goat anti-human Fc antibody was coated onto a 96-well EIA/RIA plate, and then LRP-6-Fc fusion protein was added for incubation. The biotinylated sclerostin protein and the anti-sclerostin antibody were co-incubated, and then added to the plate for incubation. After washing the plate, the binding amount between biotinylated sclerostin and LRP-6 was measured, and the IC₅₀ value of the blocking activity of the sclerostin antibody was calculated.
(§3) The goat anti-human Fc antibody was diluted to a concentration of 1 μg/ml with PBS buffer at pH 7.4 (Sigma, P4417-100TAB), and added to a 96-well EIA/RIA plate at a volume of 100 μl/well. Then, the plate was incubated at 37° C. for 2 hours. After discarding the liquid, the plates were blocked with 200 μl/well of blocking solution containing 5% skim milk (Guangming skim milk) in PBS, and incubated at 37° C. for 2.5 hours. After blocking, the blocking solution was discarded and the plate was washed 5 times with PBST buffer (pH 7.4 PBS containing 0.05% tween-20). LPR-6-Fc fusion protein (R&D SYSTEM, 1505-LRP-025) was diluted with sample dilution buffer (pH 7.4 PBS containing 1% BSA) to 1 μg/ml and 50 μl/well was added, then the plate was incubated at 37° C. for 2 hours. […]

[6] = molecular target: T1, human sclerostin protein (R&D SYSTEM, …); experiment: SPR (Biacore X100), antibody captured by anti-human antibody, SOST as analyte, 1:1 Langmuir fit
Text: (§4) The anti-human capture antibody was covalently linked to the CMS biosensor chip (Cat. #BR-1000-12, GE) of a Biacore instrument (Biacore X100, GE) according to the method described in the instructions of anti-human trapping kit (GE, Cat.# BR-1008-39) for affinity capturing an amount of a test antibody. Then, a gradient of concentrations of SOST antigen (human SOST, R&D SYSTEM, Cat.#1406-ST-025/CF, R&D; monkey SOST, cyno-SOST-Flag, obtained by purification, encoded by SEQ ID NO: 4 of Example 1; murine SOST, m-SOST-Flag, obtained by purification, encoded by SEQ ID NO: 3 of Example 1) were flowed through the surface of the biochip. The reaction signal was detected in real-time using a Biacore instrument (GE, BiacoreX100) to obtain the association and dissociation curves. After each cycle of dissociation was finished in the experiment, the biochip was washed and regenerated with regeneration solution in the anti-human capture kit.
(§5) The amino-coupled kit used in the experiments was purchased from GE (Cat. #BR-1000-50, GE), and the buffer was HBS-EP+10× buffer solution (Cat. #BR-1006-69, GE), and the buffer was diluted to 1× (pH 7.4) with D.I. Water.
(§6) The data obtained was fitted by GE BlAevaluation version 4.1 software using a 1:1 Langmuir model, and the affinity value was generated.

[7] = molecular target: T2, cynomolgus monkey sclerostin with a …; experiment: as above
Text: as §4, §5, §6

[8] = molecular target: T1, human sclerostin protein (R&D SYSTEM, …); experiment: competition ELISA: antibody blocks binding of biotinylated human sclerostin to captured LRP-6-Fc
Method: as §2, §3

[9] = molecular target: T3, human sclerostin with a Flag tag …; experiment: binding ELISA, biotinylated h-SOST-Flag on streptavidin plate (Test Example 1)
Method: as §1
Streptavidin (Sigma, S4762-5MG) was diluted to a concentration of 5 μg/ml with PBS buffer at pH 7.4 (Sigma, P4417-100TAB), and added to a 96-well EIA/RIA plate (Corning,CLS3590-100EA) at a volume of 50 μl/well. Then, the plate was incubated in an incubator at 37° C. for 2 hours. The liquid was discarded, the plates were blocked with 200 μl/well of blocking solution containing 5% skim milk (Guangming skim milk) in PBS, and incubated in an incubator at 37° C. for 2.5 hours or overnight (16-18 hours) at 4° C. After blocking, the blocking solution was discarded and the plate was washed 5 times with PBST buffer (pH 7.4 PBS containing 0.05% tween-20). […] The OD value at a wavelength of 450 nm was read on a NOVOStar microplate reader, and then EC₅₀ values of the binding between the sclerostin antibody of the present invention and human sclerostin were calculated.

[10] = molecular target: T1, human sclerostin protein (R&D SYSTEM, …); experiment: competition ELISA: antibody blocks binding of biotinylated human sclerostin to captured LRP-6-Fc (Test Example 2)
Method: as §2, §3

| Binder | fold affinity against the positive molecule (Romosozumab) [1] [times] | fold affinity against the positive molecule (Romosozumab) [2] [times] | Cell activity EC50 (nM): alkaline phosphatase (ALP) activity in C2C12 cells given wnt3a and SOST [3] [nM] | EC50 [4] [pM] | IC50 [5] [pM] | Kd [6] [pM] | Kd [7] [pM] | IC50 [8] [pM] | EC50 [9] [pM] | IC50 [10] [pM] |
| --- | --- | --- | --- | --- | --- | --- | --- | --- | --- | --- |
| humanized antibody Ab-5 (antibody, human IgG4 S228P, kappa, V domains shown, also called humanized anti-SOST antibody) VH: EVQLVQSGAEVKKPGASVKVSCKASGYTFTDYNLDWLRQAPGEGLEWIGDIDPNDGDILYNQKFRDRVTMTTDTSTSTAYMELRSLRSDDTAVYYCARRWAYYFDYWGQGTTVTVSS VL: DIVMTQSPSSLSASVGDRVTITCKASQSVSNDVAWYQQKPGKSPKLLIYYTSNRFTGVPDRFSGSGSGTDFTLTISSLQPEDFATYFCQQDYSSPVTFGGGTKVEIKR | ~10 | > 10 | 84.7 | 630 | 110000 | 64 | 30 | 23500 |  |  |
| humanized antibody Ab-9 (antibody, human IgG4 S228P, kappa, V domains shown) VH: EVQLVQSGAEVKKPGASVKVSCKASGYTFTDYNLDWLRQAPGEGLEWIGDIDPNNGDILYNQKFRDRVTMTTDTSTSTAYMELRSLRSDDTAVYYCARRWAYYFDYWGQGTTVTVSS VL: NIVMTQSPSSLSASVGDRVTITCKASQSVSNDVAWYQQKPGKSPKLLIYYTSNRFTGVPDRFSGSGSGTDFTLTISSLQPEDFATYFCQQDYSSPVTFGGGTKVEIKR |  |  |  | 400 |  |  |  |  |  |  |
| humanized antibody Ab-10 (antibody, human IgG1, kappa, V domains shown) VH: EVQLVQSGAEVKKPGASVKVSCKASGYTFTDYNLDWVRQAPGQGLEWMGDIDPNNGDILYNQKFRDRVTMTTDTSTSTAYMELRSLRSDDTAVYYCARRWAYYFDYWGQGTTVTVSS VL: DIQMTQSPSSLSASVGDRVTITCKASQSVSNDVAWYQQKPGKAPKLLIYYTSNRFTGVPSRFSGSGSGTDFTLTISSLQPEDFATYYCQQDYSSPVTFGGGTKVEIKR |  |  |  | 540 |  |  |  |  |  |  |
| murine anti-human sclerostin monoclonal antibody Ab-1 (antibody, V domains shown, Mouse hybridoma antibody; also called parental antibody; murine antibody) VH: EVQLQQSGPELVKPGTSVKIPCQTSGYTFTDYNLDWLKQRPGESLEWIGDIDPNNGDILYNQKFRDKATLTVDTSSNTAYLELRSLTSEDTAVYYCARRWAYYFDYWGQGTTLTISS VL: NIVMTQTPKLLFVSAGDRITITCKASQSVSNDVAWYQQKPGQSPKLLIYYTSNRFTGVPDRFTGSGYGTDFTLTINTVQAEDLAVYFCQQDYSSPVTFGAGTKLELK |  |  |  | 701 |  |  |  |  | 701 | 9910 |
| Romosozumab (antibody, V domains shown) VH: EVQLVQSGAEVKKPGASVKVSCKASGYTFTDYNMHWVRQAPGQGLEWMGEINPNSGGAGYNQKFKGRVTMTTDTSTSTAYMELRSLRSDDTAVYYCARLGYDDIYDDWYFDVWGQGTTVTVSS VL: DIQMTQSPSSLSASVGDRVTITCRASQDISNYLNWYQQKPGKAPKLLIYYTSRLLSGVPSRFSGSGSGTDFTLTISSLQPEDFATYYCQQGDTLPYTFGGGTKVEIK |  |  | 71.6 |  | 46800 | 670 | 520 | 27900 |  |  |
